Consider 4 molecules from patent US8815527 (Stanford University, dated 2014).

Assay [1] deals with AKT phosphorylated at Ser473. Kind of assay: flow cytometry, Jurkat T cells +PDGF, AKT+ gated; number stands under the right-hand population (ser473 stain about 50, thr308 stain about 50); one dotted box encloses both populations. (In flow cytometry, cells or beads pass a laser one at a time.)
Assay [2] has as its target p38 MAPK phosphorylated at Thr180/Tyr182. The experiment in a line: flow cytometry, Jurkat T cells +Anisomycin; gate around the population with phospho-p38 stain about 15 to 100.
Assay [3] has as its target T1, Leukocyte Function Antigen-1 (LFA-1) on the cell surface (human, UniProt P20701 26-1170; P05107 23-769). The experiment in a line: cell-based or functional assay.
Assay [4] deals with T1, Leukocyte Function Antigen-1 (LFA-1) on …. Kind of assay: flow cytometry, ICAM-2-FITC titration on Jurkat cells, single cell analysis. The method, then:
Molecular weight was calculated using relative distance migration from a molecular weight standard. Concentration was determined using serial dilutions of BSA as a standard. […] Mean fluorescence intensity was plotted per time of a gated homogenous cell population. Flow rate was maintained at 200-300 cells/second, with fluorescence intensity values acquired at 10 millisecond intervals for 1200 seconds. […] Cells were washed 1×, and analyzed for mean fluorescent intensity (MFI) of 10^4 cells. […] Values were fit to the equation Y=m1*M0/(m2+M0) (see materials and methods).

In assay [5] the target is β4 integrin (NIH3T3-derived cells) (UniProt A2A863 29-1818, limits assumed). Kind of assay: two-column affinity chromatography (ICAM-2 solid support, then streptavidin-agarose) and immunoblot.
Another assay addresses ezrin in NIH3T3 cells (UniProt P26040 1-586). The experiment in a line: co-immunoprecipitation (IP ICAM-2, immunoblot ezrin) from transduced NIH3T3 cells. The source says:
Control lysates were not subjected to immunoprecipitation and reflect positive controls for detected interacting protein. […] Phosphotransfer of ATP to peptide substrate was detected by scintillation counting and presented as counts per minute CPM.
In general terms: A western blot detects proteins with antibodies after separation by electrophoresis.

T1 sequence (P20701 26-1170, chain 1 of 2): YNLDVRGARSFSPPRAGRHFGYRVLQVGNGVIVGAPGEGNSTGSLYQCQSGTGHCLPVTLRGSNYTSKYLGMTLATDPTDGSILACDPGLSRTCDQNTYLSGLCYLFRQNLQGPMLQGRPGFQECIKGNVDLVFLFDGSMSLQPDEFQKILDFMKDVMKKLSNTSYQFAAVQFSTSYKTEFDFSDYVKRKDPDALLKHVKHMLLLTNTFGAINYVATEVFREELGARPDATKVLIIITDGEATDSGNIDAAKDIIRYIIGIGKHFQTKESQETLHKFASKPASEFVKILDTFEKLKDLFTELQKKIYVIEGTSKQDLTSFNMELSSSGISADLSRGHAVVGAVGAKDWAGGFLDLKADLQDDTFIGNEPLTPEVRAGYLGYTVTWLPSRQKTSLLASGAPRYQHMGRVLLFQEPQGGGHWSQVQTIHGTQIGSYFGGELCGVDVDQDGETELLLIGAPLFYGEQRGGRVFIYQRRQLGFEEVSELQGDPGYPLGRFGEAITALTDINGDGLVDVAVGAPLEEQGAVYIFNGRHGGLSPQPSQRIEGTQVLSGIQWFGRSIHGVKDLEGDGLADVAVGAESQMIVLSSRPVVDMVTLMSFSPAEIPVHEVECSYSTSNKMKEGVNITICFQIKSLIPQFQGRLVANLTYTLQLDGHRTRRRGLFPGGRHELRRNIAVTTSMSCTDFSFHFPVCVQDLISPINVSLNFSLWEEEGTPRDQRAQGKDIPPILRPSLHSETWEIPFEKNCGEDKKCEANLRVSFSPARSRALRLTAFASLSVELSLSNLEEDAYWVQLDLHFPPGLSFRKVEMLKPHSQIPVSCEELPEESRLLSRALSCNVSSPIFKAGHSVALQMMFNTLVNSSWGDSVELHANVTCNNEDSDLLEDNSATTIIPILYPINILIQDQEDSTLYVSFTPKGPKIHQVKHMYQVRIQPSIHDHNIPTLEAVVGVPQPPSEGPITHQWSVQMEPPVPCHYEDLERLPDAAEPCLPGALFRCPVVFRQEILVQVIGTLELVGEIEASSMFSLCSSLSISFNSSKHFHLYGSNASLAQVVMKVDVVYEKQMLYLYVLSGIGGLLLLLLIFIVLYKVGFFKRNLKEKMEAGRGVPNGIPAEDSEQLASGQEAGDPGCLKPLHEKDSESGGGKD
T1 sequence (P05107 23-769, chain 2 of 2): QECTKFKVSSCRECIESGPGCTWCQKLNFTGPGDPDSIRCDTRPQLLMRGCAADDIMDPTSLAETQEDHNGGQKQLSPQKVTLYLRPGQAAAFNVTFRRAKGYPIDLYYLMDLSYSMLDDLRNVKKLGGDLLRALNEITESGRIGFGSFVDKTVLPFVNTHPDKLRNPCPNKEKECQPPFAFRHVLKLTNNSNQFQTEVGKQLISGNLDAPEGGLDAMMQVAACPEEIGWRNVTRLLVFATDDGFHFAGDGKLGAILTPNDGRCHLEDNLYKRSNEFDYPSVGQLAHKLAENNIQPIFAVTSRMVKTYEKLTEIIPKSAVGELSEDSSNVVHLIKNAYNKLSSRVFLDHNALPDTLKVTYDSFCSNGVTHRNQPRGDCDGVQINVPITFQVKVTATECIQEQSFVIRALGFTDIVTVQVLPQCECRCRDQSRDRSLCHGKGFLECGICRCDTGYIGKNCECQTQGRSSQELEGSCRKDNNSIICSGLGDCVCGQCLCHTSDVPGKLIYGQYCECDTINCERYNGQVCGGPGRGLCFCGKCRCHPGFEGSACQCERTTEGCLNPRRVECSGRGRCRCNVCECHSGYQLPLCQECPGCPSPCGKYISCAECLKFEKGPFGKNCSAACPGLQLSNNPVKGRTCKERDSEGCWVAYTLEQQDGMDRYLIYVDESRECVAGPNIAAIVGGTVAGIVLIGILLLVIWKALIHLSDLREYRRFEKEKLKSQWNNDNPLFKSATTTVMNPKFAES
Chain of ezrin in NIH3T3 cells (P26040 whole entry): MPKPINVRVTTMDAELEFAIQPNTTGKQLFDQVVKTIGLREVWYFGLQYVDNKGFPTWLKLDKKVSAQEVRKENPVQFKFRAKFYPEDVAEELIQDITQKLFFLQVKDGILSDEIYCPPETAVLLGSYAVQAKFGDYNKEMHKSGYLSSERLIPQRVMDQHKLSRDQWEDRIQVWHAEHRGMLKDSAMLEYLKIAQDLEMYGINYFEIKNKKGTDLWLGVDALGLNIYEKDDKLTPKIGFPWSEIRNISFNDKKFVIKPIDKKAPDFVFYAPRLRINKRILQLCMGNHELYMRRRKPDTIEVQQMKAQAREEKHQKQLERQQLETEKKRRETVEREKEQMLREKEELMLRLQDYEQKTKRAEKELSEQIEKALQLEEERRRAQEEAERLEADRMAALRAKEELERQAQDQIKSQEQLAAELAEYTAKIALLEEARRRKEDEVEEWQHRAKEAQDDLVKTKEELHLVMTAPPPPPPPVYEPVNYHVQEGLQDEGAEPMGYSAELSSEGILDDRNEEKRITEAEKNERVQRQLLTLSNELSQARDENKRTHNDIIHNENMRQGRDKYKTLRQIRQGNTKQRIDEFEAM
Chain of β4 integrin (NIH3T3-derived cells) (A2A863 29-1818 limits assumed): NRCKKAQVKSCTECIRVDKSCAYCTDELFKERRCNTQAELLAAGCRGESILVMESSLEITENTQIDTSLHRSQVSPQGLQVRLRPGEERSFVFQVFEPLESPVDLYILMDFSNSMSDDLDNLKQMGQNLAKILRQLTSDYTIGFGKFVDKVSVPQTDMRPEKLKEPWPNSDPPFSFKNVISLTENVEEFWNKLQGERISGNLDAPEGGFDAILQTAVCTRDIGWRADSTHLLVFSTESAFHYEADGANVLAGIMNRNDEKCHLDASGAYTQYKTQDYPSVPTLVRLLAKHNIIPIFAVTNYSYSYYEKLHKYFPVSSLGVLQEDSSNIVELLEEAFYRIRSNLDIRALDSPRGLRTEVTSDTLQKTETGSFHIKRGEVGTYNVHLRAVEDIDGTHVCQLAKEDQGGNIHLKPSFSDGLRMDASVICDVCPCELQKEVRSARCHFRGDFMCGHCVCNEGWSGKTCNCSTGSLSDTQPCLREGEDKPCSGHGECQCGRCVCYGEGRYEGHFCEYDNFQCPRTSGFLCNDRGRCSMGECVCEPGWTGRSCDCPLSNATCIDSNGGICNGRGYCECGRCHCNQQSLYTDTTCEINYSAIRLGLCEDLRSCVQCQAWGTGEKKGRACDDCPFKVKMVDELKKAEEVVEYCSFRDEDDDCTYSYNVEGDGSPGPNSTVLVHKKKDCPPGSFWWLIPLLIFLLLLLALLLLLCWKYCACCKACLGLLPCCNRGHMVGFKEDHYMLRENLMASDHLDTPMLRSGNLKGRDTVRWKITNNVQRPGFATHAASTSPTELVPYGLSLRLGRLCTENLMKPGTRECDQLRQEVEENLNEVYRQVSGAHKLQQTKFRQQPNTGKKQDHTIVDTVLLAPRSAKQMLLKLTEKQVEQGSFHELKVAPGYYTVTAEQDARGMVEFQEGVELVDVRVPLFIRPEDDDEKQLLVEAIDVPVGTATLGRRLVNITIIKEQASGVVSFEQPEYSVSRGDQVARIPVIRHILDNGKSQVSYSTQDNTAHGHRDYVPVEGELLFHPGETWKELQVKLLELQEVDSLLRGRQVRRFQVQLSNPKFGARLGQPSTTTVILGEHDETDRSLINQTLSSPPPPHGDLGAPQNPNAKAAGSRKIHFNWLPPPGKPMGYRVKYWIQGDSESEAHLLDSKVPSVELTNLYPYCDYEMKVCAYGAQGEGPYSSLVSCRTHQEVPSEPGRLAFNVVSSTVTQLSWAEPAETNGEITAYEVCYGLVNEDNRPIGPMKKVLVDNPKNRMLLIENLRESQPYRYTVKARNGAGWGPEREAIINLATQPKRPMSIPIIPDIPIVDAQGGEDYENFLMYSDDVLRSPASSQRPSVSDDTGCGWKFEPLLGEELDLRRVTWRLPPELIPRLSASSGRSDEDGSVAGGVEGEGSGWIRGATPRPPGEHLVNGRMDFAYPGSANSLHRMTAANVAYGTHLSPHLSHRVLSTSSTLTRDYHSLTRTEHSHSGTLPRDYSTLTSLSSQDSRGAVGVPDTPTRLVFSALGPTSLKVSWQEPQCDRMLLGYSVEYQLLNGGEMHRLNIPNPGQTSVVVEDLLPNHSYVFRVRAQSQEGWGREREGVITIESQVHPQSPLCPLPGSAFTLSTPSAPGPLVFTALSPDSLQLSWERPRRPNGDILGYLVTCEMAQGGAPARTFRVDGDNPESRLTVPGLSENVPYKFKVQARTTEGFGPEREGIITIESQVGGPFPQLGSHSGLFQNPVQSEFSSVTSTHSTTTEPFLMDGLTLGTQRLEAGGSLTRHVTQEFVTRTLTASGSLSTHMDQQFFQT

The molecule “phospho-AKT Ser473 monoclonal antibody 4E2” gave a percent of gated cells (number printed below the gate) in assay [1] of 43.9.

Regarding “phospho-p38 MAP kinase (Thr180/Tyr182) monoclonal antibody 28B10”, the percent of cells in the drawn gate (number printed beside the gate) in assay [2] amounted to 13.3.

B1: soluble human ICAM-2 protein, biochemically purified from retrovirally transduced NIH3T3 cells (ligand, UniProt P13598 25-275, looked up)
chain: KVFEVHVRPKKLAVEPKGSLEVNCSTTCNQPEVGGLETSLDKILLDEQAQWKHYLVSNISHDTVLQCHFTCSGKQESMNSNVSVYQPPRQVILTLQPTLVAVGKSFTIECRVPTVEPLDSLTLFLFRGNETLHYETFGKAAPAPQEATATFNSTADREDGHRNFSCLAVLDLMSRGGNIFHKHSAPKMLEIYEPVSDSQMVIIVTVVSVLLSLFVTSVLLCFIFGQHLRQQRMGTYGVRAAWRRLPQAFRP
modifications: FITC (NHS-fluorescein) conjugate where used as ICAM-2-FITC, sites not stated
notes: mature; also called sICAM-2; soluble ICAM-2
For the molecule B1, in assay [3], the “stimulus needed for similar expression of CD69 and CD25 on naive CD4+ T cells, 6 hr” value is 10000 fold. The equilibrium dissociation constant (Kd) (usually a measure of binding affinity in units of concentration) in assay [4] was found to be 217 nM. In addition, in assay [5], the binding result was “no binding”.

B2: human ICAM-2, full length, in cells (receptor, UniProt P13598 25-275, looked up)
chain: KVFEVHVRPKKLAVEPKGSLEVNCSTTCNQPEVGGLETSLDKILLDEQAQWKHYLVSNISHDTVLQCHFTCSGKQESMNSNVSVYQPPRQVILTLQPTLVAVGKSFTIECRVPTVEPLDSLTLFLFRGNETLHYETFGKAAPAPQEATATFNSTADREDGHRNFSCLAVLDLMSRGGNIFHKHSAPKMLEIYEPVSDSQMVIIVTVVSVLLSLFVTSVLLCFIFGQHLRQQRMGTYGVRAAWRRLPQAFRP
notes: whole, on cells; Used in co-immunoprecipitations from cell lysates, FACS staining and cell mixing assays; also called ICAM-2 cells; CD102
As to B2, in the assay with ezrin in NIH3T3 cells, the binding result is given as “binds”.
